Patent US20220267421A1 (INVOX PHARMA, published 2022)

Tests used:
human MSLN-His-Avi [1] = target: T1, human MSLN-His-Avi (human, UniProt Q13421 296-598, single biotin (BirA) in the biotinylated form); test: ELISA, hMSLN-His-Avi coated at 1 ug/ml
T1 construct: Monomeric, made in HEK293-6E; Used both immobilised and in solution; also called hMSLN-His-Avi; biotinylated hMSLN-His-Avi

[2] = target: T2, cell surface human mesothelin (MSLN) (human, UniProt Q13421 296-598); test: flow cytometry, NCI-H226 cells (n = 3)
T2 construct: whole, on cells; also called cell surface MSLN
T2 sequence (Q13421 other isoform, or with tags, fused parts or gaps limits assumed): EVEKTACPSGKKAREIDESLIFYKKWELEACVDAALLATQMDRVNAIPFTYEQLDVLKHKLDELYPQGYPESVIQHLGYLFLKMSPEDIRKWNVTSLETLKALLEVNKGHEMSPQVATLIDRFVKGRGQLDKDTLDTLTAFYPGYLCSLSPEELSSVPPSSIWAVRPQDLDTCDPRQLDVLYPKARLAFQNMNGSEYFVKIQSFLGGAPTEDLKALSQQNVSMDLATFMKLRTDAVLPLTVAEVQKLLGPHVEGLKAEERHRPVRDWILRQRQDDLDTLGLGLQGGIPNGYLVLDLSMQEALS
Description: (§1) Briefly, NCI-H226 cells (ATCC CRL-5826) were harvested from T175 cell culture flasks using StemPro Accutase (Gibco, A11105-01). Cells were centrifuged at 1200 rpm for 3 min and resuspended in ice cold FACS buffer made up of DPBS (Life Technologies, 14190169) and 1% BSA (Sigma-Aldrich, A7906) at 2×10⁶ cells/ml and 50 μl per well was seeded in a 96-well V-bottom plate (Costar, 3894). All mAbs tested were diluted in FACS buffer in 120 μl at a concentration range of 0.01-200 nM (4-fold dilutions). The NCI-H226 cells were then centrifuged, supernatant removed and cells resuspended in 100 μl of each mAb dilution and incubated at 4° C. for 45 min. Cells were washed twice by centrifugation with 150 μl FACS buffer, resuspended in 100 μl containing goat anti-human IgG (γ-chain specific) F(ab′)2 fragment-R-Phycoerythrin antibody (Sigma, P8047) diluted 1:1000 in FACS buffer and incubated at 4° C. for 45 min. The cells were washed once with 150 μl FACS buffer and then with 150 μl DPBS, resuspended in 150 μl DPBS containing DAPI (Biotium, 40043) at 1:10.000 and read on the BDCantoll or iQue (Intellicyt). Data was analysed using FlowJo v10 to determine the signal geometric mean for PE for live cells in each well.

human MSLN-His-Avi [3] = target: T1, human MSLN-His-Avi; test: competition ELISA: mAb pre-mixed with biotinylated hMSLN-His-Avi, binding to coated MUC16 (competitor)
Description: Plates were washed 3 times with 1× PBS and blocked with 300 μl PBS containing 2% Tween20 and 2% Marvel Milk. A concentration of anti-MSLN mAbs (0.23 nM to 500 nM, 3-fold dilutions) were pre-mixed with biotinylated hMSLN-His-Avi antigen (final concentration 2 μg/ml) in a volume of 100 μl for 1 hr at room temperature. After removal of the blocking solution, the mAb/MSLN mixture was added to the plates and incubated for 1 hr at room temperature. Plates were washed 3 times with PBST (1× PBS and 0.05% Tween20) and incubated with streptavidin-HRP (Thermo Scientific, 21126, 1:1000 dilution in 1× PBS) for 1 hr at room temperature. Finally, plates were washed 3 times with PBST and 3 times with PBS. […] Absorbances were read at 450-630 nm (Gen5 software, BioTek).

[4] = target: T2, cell surface human mesothelin (MSLN); test: flow cytometry on NCI-H226 cells (endogenous cell surface MSLN), detection with anti-human IgG-PE, geometric mean MFI
Description: as §1

T1 sequence (Q13421 other isoform, or with tags, fused parts or gaps): as the sequence (Q13421 other isoform, or with tags, fused parts or gaps limits assumed) above

EC50 (human MSLN-His-Avi [1]) [nM] | maximum binding signal (human MSLN-His-Avi [1]) | EC50 [2] [nM] | Emax (MFI signal) [2] [MFI] | IC50 (human MSLN-His-Avi [3]) [nM] | EC50 (read off the curve) [4] [nM] | Binder
~0.5 | 3 | 0.62 | 14600 | 2.9 | ~1 | G1-AA/FS28-024 (antibody, human IgG1, kappa, L234A L235A, V domains shown, Complete human IgG1 with LALA mutation; also called FS28-024 mAb (in G1-AA format)) VH: EVQLLESGGGLVQPGGSLRLSCAASGFTLSYSSMSWVRQAPGKGLEWVSFITPSTGYTHYADSVKGRFTISRDNSKNTLYLQMNSLRAEDTAVYYCARRALTFDYWGQGTLVTVSS VL: EIVLTQSPGTLSLSPGERATLSCRASQSVSSSYLAWYQQKPGQAPRLLIYGASSRATGIPDRFSGSGSGTDFTLTISRLEPEDFAVYYCQQASSYPLTFGQGTKVEIKR
~0.5 | 3 | 1.08 | 13600 | 5.2 | ~1 | G1-AA/FS28-026 (antibody, human IgG1, kappa, L234A L235A, V domains shown, IgG1 LALA; also called FS28-026 mAb (in G1-AA format)) VH: EVQLLESGGGLVQPGGSLRLSCAASGFTFSNYAMTWVRQAPGKGLEWVSSITPYYSKTDYADSVKGRFTISRDNSKNTLYLQMNSLRAEDTAVYYCARNWYRFDYWGQGTLVTVSS VL: not shown
~0.5 | 3 | 1.22 | 11900 | 4.4 | ~1 | G1-AA/FS28-091 (antibody, human IgG1, kappa, L234A L235A, V domains shown, IgG1 LALA; also called FS28-091 mAb (in G1-AA format)) VH: EVQLLESGGGLVQPGGSLRLSCAASGFTFTNYAMSWVRQAPGKGLEWVSSIKPYDGNTYYADSVKGRFTISRDNSKNTLYLQMNSLRAEDTAVYYCARNRWVFDYWGQGTLVTVSS VL: not shown
